# Results: patent US20250223353A1 (BIOTHEUS, published 2025)
# B1: ADI-56127 Fab fragment (Fab, V domains shown)
# VH: QVQLVQSGAEVKKPGSSVKVSCKASGGTESVDAISWVRQAPGQGLEWMGDIIPFFDTDYAQKFQGRVTITADESTSTAYMELSSLRSEDTAVYYCAREGGTSWTHFFDLWGRGTLVTVSS
# VL: not shown
# notes: Fab made by papain digestion of the yeast full-length IgG, purified with Kappa Select
# Key:
# Assay in all cases: BLI (ForteBio), PVRIG-Fc on AHQ sensor, 100 nM Fab in solution, monovalent, 1:1 model
# human PVRIG-Fc protein = molecular target: T1, human PVRIG-Fc protein (human, UniProt Q6DKI7 41-171)
# T1 construct: also called PVRIG-Fc antigen (human); not shown: Fc part
# T1 sequence: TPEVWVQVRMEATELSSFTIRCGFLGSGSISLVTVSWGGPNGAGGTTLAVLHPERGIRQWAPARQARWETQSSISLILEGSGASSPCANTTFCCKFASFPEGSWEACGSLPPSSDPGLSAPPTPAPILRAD
# Description: (§1) Biofilm layer optical interference technology (ForteBio) was used to determine the binding and dissociation rate constant (KD) values of the antibodies and their variants or Fab fragments obtained in Example 1 to human, cynomolgus monkey and mouse PVRIG. ForteBio affinity measurement was performed according to existing methods (Este, P et al., High throughput solution-based measurement of antibody-antigen affinity and epitope binning. Mabs, 2013.5 (2): p270-8).
# (§2) The antigen-loaded sensor was incubated in 100 nM Fab solution to the plateau phase, and then the sensor was transferred to an analysis buffer and incubated for at least 2 minutes for measuring dissociation rate. The kinetic analysis was performed using a 1:1 binding model.
# [1] = molecular target: T2, cynomolgus monkey PVRIG-Fc protein (cynomolgus monkey, UniProt Q6DKI7 41-171 (human entry), limits assumed)
# T2 construct: also called cynomolgus PVRIG-Fc protein; not shown: Fc part
# T2 chain: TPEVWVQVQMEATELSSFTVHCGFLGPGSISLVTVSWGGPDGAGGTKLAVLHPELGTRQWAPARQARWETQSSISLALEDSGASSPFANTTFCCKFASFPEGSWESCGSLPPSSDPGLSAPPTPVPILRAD
# Description: as §1, §2
# mouse PVRIG-Fc protein = molecular target: T3, mouse PVRIG-Fc protein (mouse)
# T3 construct: not shown: Fc part
# T3 chain: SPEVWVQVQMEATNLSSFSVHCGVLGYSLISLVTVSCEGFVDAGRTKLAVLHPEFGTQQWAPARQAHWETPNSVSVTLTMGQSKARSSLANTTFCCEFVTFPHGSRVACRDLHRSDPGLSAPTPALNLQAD
# Description: as §1, §2
binder,measurement,setting,value
B1,Kd,human PVRIG-Fc protein,0.061 nM
same,Kd,[1],0.128 nM
same,Kd,mouse PVRIG-Fc protein,114 nM
